Laboratory results published in IntAct's records for PubMed 31515488.

B1: Dynein axonemal assembly factor 19 (Homo sapiens), Q8IW40 (parent)
chain: MERNDIINFKALEKELQAALTADEKYKRENAAKLRAVEQRVASYEEFRGIVLASHLKPLERKDKMGGKRTVPWNCHTIQGRTFQDVATEISPEKAPLQPETSADFYRDWRRHLPSGPERYQALLQLGGPRLGCLFQTDVGFGLLGELLVALADHVGPADRAAVLGILCSLASTGRFTLNLSLLSRAERESCKGLFQKLQAMGNPRSVKEGLSWEEQGLEEQSGGLQEEERLLQELLELYQVD
B2: Carbonyl reductase [NADPH] 3 (Homo sapiens), O75828 (parent)
chain: MSSCSRVALVTGANRGIGLAIARELCRQFSGDVVLTARDVARGQAAVQQLQAEGLSPRFHQLDIDDLQSIRALRDFLRKEYGGLNVLVNNAAVAFKSDDPMPFDIKAEMTLKTNFFATRNMCNELLPIMKPHGRVVNISSLQCLRAFENCSEDLQERFHSETLTEGDLVDLMKKFVEDTKNEVHEREGWPNSPYGVSKLGVTVLSRILARRLDEKRKADRILVNACCPGPVKTDMDGKDSIRTVEEGAETPVYLALLPPDATEPQGQLVHDKVVQNW
B3: Grainyhead-like protein 2 homolog (Homo sapiens), Q6ISB3 (parent)
chain: MSQESDNNKRLVALVPMPSDPPFNTRRAYTSEDEAWKSYLENPLTAATKAMMSINGDEDSAAALGLLYDYYKVPRDKRLLSVSKASDSQEDQEKRNCLGTSEAQSNLSGGENRVQVLKTVPVNLSLNQDHLENSKREQYSISFPESSAIIPVSGITVVKAEDFTPVFMAPPVHYPRGDGEEQRVVIFEQTQYDVPSLATHSAYLKDDQRSTPDSTYSESFKDAATEKFRSASVGAEEYMYDQTSSGTFQYTLEATKSLRQKQGEGPMTYLNKGQFYAITLSETGDNKCFRHPISKVRSVVMVVFSEDKNRDEQLKYWKYWHSRQHTAKQRVLDIADYKESFNTIGNIEEIAYNAVSFTWDVNEEAKIFITVNCLSTDFSSQKGVKGLPLMIQIDTYSYNNRSNKPIHRAYCQIKVFCDKGAERKIRDEERKQNRKKGKGQASQTQCNSSSDGKLAAIPLQKKSDITYFKTMPDLHSQPVLFIPDVHFANLQRTGQVYYNTDDEREGGSVLVKRMFRPMEEEFGPVPSKQMKEEGTKRVLLYVRKETDDVFDALMLKSPTVKGLMEAISEKYGLPVEKIAKLYKKSKKGILVNMDDNIIEHYSNEDTFILNMESMVEGFKVTLMEI
partner: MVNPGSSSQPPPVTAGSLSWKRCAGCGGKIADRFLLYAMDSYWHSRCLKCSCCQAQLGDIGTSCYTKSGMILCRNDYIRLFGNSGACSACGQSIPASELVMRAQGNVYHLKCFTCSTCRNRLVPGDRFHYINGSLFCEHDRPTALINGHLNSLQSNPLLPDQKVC
B4: Forkhead box protein R2 (Homo sapiens), Q6PJQ5 (parent)
chain: MDLKLKDCEFWYSLHGQVPGLLDWDMRNELFLPCTTDQCSLAEQILAKYRVGVMKPPEMPQKRRPSPDGDGPPCEPNLWMWVDPNILCPLGSQEAPKPSGKEDLTNISPFPQPPQKDEGSNCSEDKVVESLPSSSSEQSPLQKQGIHSPSDFELTEEEAEEPDDNSLQSPEMKCYQSQKLWQINNQEKSWQRPPLNCSHLIALALRNNPHCGLSVQEIYNFTRQHFPFFWTAPDGWKSTIHYNLCFLDSFEKVPDSLKDEDNARPRSCLWKLTKEGHRRFWEETRVLAFAQRERIQECMSQPELLTSLFDL
partner: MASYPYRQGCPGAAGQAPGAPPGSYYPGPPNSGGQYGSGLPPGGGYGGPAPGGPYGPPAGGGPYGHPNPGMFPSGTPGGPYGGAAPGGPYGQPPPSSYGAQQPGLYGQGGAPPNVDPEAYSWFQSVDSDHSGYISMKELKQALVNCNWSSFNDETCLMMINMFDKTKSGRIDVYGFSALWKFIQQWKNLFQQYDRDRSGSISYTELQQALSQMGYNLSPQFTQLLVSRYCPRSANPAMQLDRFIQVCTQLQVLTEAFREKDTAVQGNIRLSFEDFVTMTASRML

Variants of: B1
Details: with hgs_human HGS

Row | Variant | effect of a mutation on the interaction
1 | MERNDIINFKALEKELQAALTADEKYRRENAAKLRAVEQRVASYEEFRGIVLASHLKPLERKDKMGGKRTVPWNCHTIQGRTFQDVATEISPEKAPLQPETSADFYRDWRRHLPSGPERYQALLQLGGPRLGCLFQTDVGFGLLGELLVALADHVGPADRAAVLGILCSLASTGRFTLNLSLLSRAERESCKGLFQKLQAMGNPRSVKEGLSWEEQGLEEQSGGLQEEERLLQELLELYQVD [K27R] | with no effect

Variants of: B2
Details: with sdcb1_human SDCBP

Row | Variant | effect of a mutation on the interaction
2 | MSSCSRVALVTGANRGIGLAIARELCRQFSGDVVLTARDVARGQAAVQQLQAEGLSPRFHQLDIDDLQSIRALRDFLRKEYGGLNVLVNNAAVAFKSDDPMPFDIKAEMTLKTNFFATRNMCNELLPIMKSHGRVVNISSLQCLRAFENCSEDLQERFHSETLTEGDLVDLMKKFVEDTKNEVHEREGWPNSPYGVSKLGVTVLSRILARRLDEKRKADRILVNACCPGPVKTDMDGKDSIRTVEEGAETPVYLALLPPDATEPQGQLVHDKVVQNW [P131S] | with no effect
3 | MSSCSRVALVTGANRGIGLAIARELCRQFSGDVVLTARDVARGQAAVQQLQAEGLSPRFHQLDIDDLQSIRALRDFLRKEYGGLNVLVNNAAVAFKSDDPMPFDIKAEMTLKTNFFATRNMCNELLPIMKPHGRVVNISSLQCLRAFENCSEDLQERFHSETLTEGDLVDLMKKFVEDTKNEVHEREGWPNSPYGVSKLGVTVLSRILARRLDEKRKADRILVNACCPGPVKTDMDGKDSIRTMEEGAETPVYLALLPPDATEPQGQLVHDKVVQNW [V244M] | with no effect

Variants of: B3
Details: with lmo4_human LMO4, P61968

Row | Variant | effect of a mutation on the interaction
4 | K9R | with no effect

Variants of: B4
Details: with pef1_human PEF1, Q9UBV8

Row | Variant | effect of a mutation on the interaction
5 | MDLKLKDCEFWYSLHGQVPGLLDWDMRNELFLPCTTDQCSLAEQILAKYRVGVMKPPEMPQKRRPSPDGDGPPCEPNLWMWVDPNILCPLGSQEAPKPSGKEDLTNISPFPQPPQKDEGSNCSEDKVVESLPSSSSEQSPLQKQGIHSPSDFELTEEEAEEPDDNSLQSPEMKCYQSQKLWQINNQEKSWQRPPLNCSHLIALALRNNPHCGLSVQEFYNFTRQHFPFFWTAPDGWKSTIHYNLCFLDSFEKVPDSLKDEDNARPRSCLWKLTKEGHRRFWEETRVLAFAQRERIQECMSQPELLTSLFDL [I218F] | disrupting interaction strength
